Test results as given in patent US20200399355A1 (University of California, published 2020).
Square brackets hold non-standard residues; d marks the D form. Ends that are not written are not given here. Cit = NC(=O)NCCC[C@H](N)C(=O)O

B1: CV.28z-CAR (Anti-CV CAR-CD28z) on human Tregs (protein)
chain: EVKLIESGGGLVEPGRSLRLACTTSGFTFADYGLSWFRQGPGKGLEWVGFTGPKHLGETTECAPSVEDRCTISRDDSKSTVYLQMHRLQHEDTAVYFCVGPWFGDLLMWGQGTLVTVSSASSGGSTSGSGKPGSGEGSSGSARAIQMTQSPSSLSASVGDRVSITCRATQDISTSLGWYHQRPGKAPRLLIYGASKVQTGVPSRFSGNGSGTEFTLTISSLQPEDIGTYYCLQDDGFPFTVGQGTKLDIKRAAAIEVMYPPPYLDNEKSNGTIIHVKGKHLCPSPLFPGPSKPFWVLVVVGGVLACYSLLVTVAFIIFWVRSKRSRLLHSDYMNMTPRRPGPTRKHYQPYAPPRDFAAYRSRVKFSRSADAPAYQQGQNQLYNELNLGRREEYDVLDKRRGRDPEMGGKPRRKNPQEGLYNELQKDKMAEAYSEIGMKGERRRGKGHDGLYQGLSTATKDTYDALHMQALPPR
B2: CV.41BBz-CAR (Anti-CV CAR-41BBz) on human Tregs (protein)
chain: EVKLIESGGGLVEPGRSLRLACTTSGFTFADYGLSWFRQGPGKGLEWVGFTGPKHLGETTECAPSVEDRCTISRDDSKSTVYLQMHRLQHEDTAVYFCVGPWFGDLLMWGQGTLVTVSSASSGGSTSGSGKPGSGEGSSGSARAIQMTQSPSSLSASVGDRVSITCRATQDISTSLGWYHQRPGKAPRLLIYGASKVQTGVPSRFSGNGSGTEFTLTISSLQPEDIGTYYCLQDDGFPFTVGQGTKLDIKRAAAIEVMYPPPYLDNEKSNGTIIHVKGKHLCPSPLFPGPSKPFWVLVVVGGVLACYSLLVTVAFIIFWVKRGRKKLLYIFKQPFMRPVQTTQEEDGCSCRFPEEEEGGCELRVKFSRSADAPAYQQGQNQLYNELNLGRREEYDVLDKRRGRDPEMGGKPRRKNPQEGLYNELQKDKMAEAYSEIGMKGERRRGKGHDGLYQGLSTATKDTYDALHMQALPPR
B3: BVCA1 scFv (soluble CV-specific scFv, VH-linker-VL) (scFv)
scFv: EVKLIESGGGLVEPGRSLRLACTTSGFTFADYGLSWFRQGPGKGLEWVGFTGPKHLGETTECAPSVEDRCTISRDDSKSTVYLQMHRLQHEDTAVYFCVGPWFGDLLMWGQGTLVTVSSASSGGSTSGSGKPGSGEGSSGSARAIQMTQSPSSLSASVGDRVSITCRATQDISTSLGWYHQRPGKAPRLLIYGASKVQTGVPSRFSGNGSGTEFTLTISSLQPEDIGTYYCLQDDGFPFTVGQGTKLDIKRAAA
notes: Produced in E. coli periplasm; also called anti-CV scFv; single-chain variable fragment (scFv) synthesized from BVCA1 antibody; not shown: tags of the pSYN-expressed protein (detected with anti-c-Myc 9E10, purified on Ni-NTA)

Key:
[1] = biological target: biotinylated CV peptide (Innovagen), CV60-75, on streptavidin; test: flow cytometry of transduced Tregs stained with biotinylated-CV-peptide/streptavidin-FITC tetramer (y axis, 'CAR+ cells') and EGFRt antibody (x axis)
[2] = biological target: biotinylated CV peptide (Innovagen), CV60-75, on streptavidin; test: flow cytometry of transduced Tregs stained with biotinylated-CV-peptide/streptavidin-FITC tetramer (y axis, 'CAR+ cells') and EGFRt antibody (x axis); number printed under the right half of the panel, taken as the lower right quadrant
[3] = biological target: T1, Human CV peptide 60-75 (biotinylated citrullinated vimentin peptide) (human, also: biotinylated, position not given here); test: SPR (Biacore T100), biotinylated CV peptide on streptavidin-coated sensor chip, scFv injected from 400nM down to 12.5nM; fit table under the sensorgrams, column kd (1/s)
T1 construct: Captured through biotin on streptavidin (ELISA plate or SPR chip); also called human citrullinated vimentin
T1 peptide: VYAT[Cit]SSAV[Cit]L[Cit]SSVP
Description: (§1) Assessment of the binding specificity and affinity of BVCA1 antibodies and scFv to CV peptide: The binding specificity of BVCA1 IgG and scFv were assessed by ELISA. 96-well ELISA plates were coated 0/N at 4° C. with 50 μl Streptavidin at 10m/ml. Wells were washed three times and blocked with 2000 of 1×PBS 1% BSA for 1 h at RT and washed again. 1000 of biotinylated peptides at 10 ug/ml diluted in PBS 1% BSA were added and incubated for 1 h at RT. Wells were then washed three times. 1000 of BVCA1 IgG or scFv or isotype control were added at various concentrations (serial dilution). […] Reaction was stopped with 50 11.1 of NaOH 3M after 15 to 30 min and absorbance was read in a microplate reader at 405 nm. Kinetics and affinities of BVCA1 Ig and scFv to CV peptide were analyzed by surface plasmon resonance using Biacore T100 (GE healthcare). […]

[4] = biological target: T1, Human CV peptide 60-75 (biotinylated …); test: SPR (Biacore T100), biotinylated CV peptide immobilised on streptavidin-coated chip, scFv injected
Description: as §1

[5] = biological target: T1, Human CV peptide 60-75 (biotinylated …); test: SPR (Biacore T100), biotinylated CV peptide on streptavidin-coated sensor chip, scFv injected from 400nM down to 12.5nM; fit table under the sensorgrams, column ka (1/Ms)
Description: as §1

[6] = biological target: T1, Human CV peptide 60-75 (biotinylated …); test: ELISA, biotinylated peptide on streptavidin-coated plate, scFv detected with anti-c-Myc 9E10 and anti-mouse IgG-AP, absorbance 405 nm
Description: as §1

[7] = biological target: T2, Murine CV peptide 60-75 (biotinylated citrullinated vimentin peptide) (murine, also: biotinylated, position not given here); test: as above
T2 construct: Captured through biotin on streptavidin in ELISA; also called murine citrullinated vimentin
T2 peptide: AYVT[Cit]SSAV[Cit]L[Cit]SSVP
Description: as §1

[8] = biological target: T1, Human CV peptide 60-75 (biotinylated …); test: SPR (Biacore T100), biotinylated CV peptide on streptavidin-coated sensor chip, scFv injected from 400nM down to 12.5nM; fit table under the sensorgrams, column KD (M)
Description: as §1

| Molecule | % of cells CVpep-SA-FITC+ EGFRt+ (upper right quadrant) [1] [%] | % of cells CVpep-SA-FITC- EGFRt+ (lower right quadrant; the number stands below the panel) [2] [%] | % of cells CVpep-SA-FITC+ EGFRt- (upper left quadrant) [1] [%] | % of cells CVpep-SA-FITC- EGFRt+ (lower right quadrant) [1] [%] | other results |
| --- | --- | --- | --- | --- | --- |
| CD19.41BBz-CAR on human Tregs | 0.5 | 63.4 | – | – | – |
| CD19.28z-CAR on human Tregs | 1.5 | 72.9 | 0.1 | – | – |
| B1 | 47.5 | – | 0.6 | 20.7 | – |
| B2 | 55.4 | – | 0.6 | 18.9 | – |
| B3 | – | – | – | – | koff [3]: 0.00377 s⁻¹; Kd [4]: 198 nM; kon [5]: 19000 M⁻¹ s⁻¹; EC50 (read off the curve) [6]: ~2 ng/mL; EC50 (read off the curve) [7]: ~2 ng/mL; Kd [8]: 198 nM |
